The values that follow come from patent US20220306744A1 (CRESCENDO BIOLOGICS, published 2022).

Sequences and labels used below:
B1: 1.51a (VHH)
VHH: EVQLVESGGGVVRPGGSLRLSCAASGFTFDDYAMSWVRQAPGKGLEWVSGITWNGGSTGYADSVKDRFTISRDNAKNSLYLQMNSLRAEDTALYYCVRDKYSYAWSYDGFDIWGQGTMVTVSS
B2: 1.61a (VHH)
VHH: B1 VHH with E1Q, D31N, V97A, G109T, W113R
B3: 1.78a (VHH)
VHH: B1 VHH with D66G, G109V
B4: 1.67a (VHH)
VHH: B1 VHH with M34G, D66G
B5: 1.74a (VHH)
VHH: B1 VHH with G55S, G109D
B6: 1.76a (VHH)
VHH: B1 VHH with G55H, G109V
B7: 1.71a (VHH)
VHH: B1 VHH with M34L, D66G
B8: 1.63a (VHH)
VHH: B1 VHH with G55R, D66G, G109D
B9: 1.83a (VHH)
VHH: B1 VHH with M34T
B10: 1.62a (VHH)
VHH: B1 VHH with G55A, D66G, G109D
notes: also called Humabody 1.62a
B11: 1.69a (VHH)
VHH: B1 VHH with M34W, D66G
B12: 1.75a (VHH)
VHH: B1 VHH with G55Q, G109D
B13: 1.81a (VHH)
VHH: B1 VHH with G55R, G109D
B14: 1.79a (VHH)
VHH: B1 VHH with D66G, G109D
B15: 1.73a (VHH)
VHH: B1 VHH with M34R, D66G
B16: 1.70a (VHH)
VHH: B1 VHH with M34V, D66G
B17: 1.66a (VHH)
VHH: B1 VHH with M34N, D66G
B18: 1.64a (VHH)
VHH: B1 VHH with M34F, D66G
B19: 1.80a (VHH)
VHH: B1 VHH with G55K, G109D
B20: 1.68a (VHH)
VHH: B1 VHH with M34E, D66G
B21: 1.59a (VHH)
VHH: B1 VHH with E1Q, T52S, T58K, V97A, K100P, Y103G, G109A
B22: 1.77a (VHH)
VHH: B1 VHH with G55A, G109D
B23: 1.60a (VHH)
VHH: B1 VHH with E1Q, T52S, V97A, K100P, Y103G, G109A
B24: 1.72a (VHH)
VHH: B1 VHH with M34S, D66G
B25: 1.58a (VHH)
VHH: B1 VHH with E1Q, V11L, R13Q, T52S, T58A, V97A, K100P, Y101H, Y103S, G109A
B26: 1.82a (VHH)
VHH: B1 VHH with M34I
B27: 1.65a (VHH)
VHH: B1 VHH with M34Q, D66G
B28: 1.6a (VHH)
VHH: EVQLVESGGGVVQPGRSLRLSCAASGFTFSSYAMHWVRQAPGKGREWVSGISWNSGSMGYAESVKGRFTISRDNAKNSLYLQMNSLRAEDSALYYCVKDKGPGLTGTTADYYGMDVWGQGTTVTVSS
B29: 1.7a (VHH)
VHH: B28 VHH with V12I, S30D, S31D, S55G, K76Q
B30: 1.15a (VHH)
VHH: B28 VHH with V5L, V11L, A23T, S30D, S31D, T105I, T107S
B31: 1.17a (VHH)
VHH: EVQLLESGGGLVQPGGSLRLSCAASGFTFDDYAMHWVRQAPGKGLEWVSGISWNSGSMGYAASVKDRFTISRDNAKNSLYLQMNSLTTEDTALYYCVKDKGPGLIGSTADYHGLDVWGQGTTVTVSS
B32: 1.44a (VHH)
VHH: EVQLVESGGGLVQPGRSLRLSCAASGFTFDDYALHWVRQAPGKDLEWVSGISWNSGSYGYADSVKGRFTISRDNAKNSLYLQMNSLRAEDTALYYCVREKGPGLTGSTADYYGLDAWGQGTMVTVSS
B33: 1.49a (VHH)
VHH: B32 VHH with L34F, Y58Q
B34: 1.47a (VHH)
VHH: B32 VHH with L34F
B35: 1.45a (VHH)
VHH: B32 VHH with S55A, Y58Q
B36: 1.48a (VHH)
VHH: B32 VHH with Y58Q
B37: 1.46a (VHH)
VHH: B32 VHH with S55A
B38: 1.50a (VHH)
VHH: B32 VHH with L34F, S55A, Y58Q

Where a chain is given by its changes, count along the chain named.

In the assay the target is T1, human PD-1 expressed on cells (CHO TREX human PD1 cell line, full-length human PD-1 sequence) (human, UniProt Q15116 21-288).
T1 construct: Also used for human PD-1 on Jurkat reporter cells, on PathHunter cells and on PHA-stimulated human CD4+ T cells; also called CHO human PD1 cells; CHO human PD-1 cells
T1 sequence (Q15116 21-288): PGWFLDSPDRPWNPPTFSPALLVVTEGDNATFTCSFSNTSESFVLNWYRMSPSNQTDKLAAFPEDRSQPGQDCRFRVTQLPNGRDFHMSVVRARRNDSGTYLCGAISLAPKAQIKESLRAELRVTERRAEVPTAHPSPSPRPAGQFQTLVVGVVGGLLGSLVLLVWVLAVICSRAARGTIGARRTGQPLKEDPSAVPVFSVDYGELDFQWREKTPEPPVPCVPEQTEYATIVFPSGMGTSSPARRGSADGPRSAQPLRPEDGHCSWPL
Briefly: worded summary of the screens.
Consider B1, for which the binding result was “binds”. Then B2, with “binds”.

Consider B3, for which the binding result is given as “binds”. Then B4, with “binds”. Then B5, with “binds”. With B6 the entry was “binds”.

Regarding B7, the binding result was “binds”. Then B8, with “binds”; and B9, with “binds”. On to B10, for which the binding result was “binds”. As to B11, the binding result is recorded as “binds”. As for B12, the binding result is on record as “binds”. Then B13, with “binds”.

On to B14, for which the binding result was “binds”. With B15 the entry was “binds”.

Consider B16, for which the binding result is reported as “binds”.

For B17, the binding result is reported as “binds”. Then B18, with “binds”; and B19, with “binds”. With B20 the entry was “binds”; with B21, “binds”. Then B22, with “binds”; and B23, with “binds”. Turning to B24, the binding result is “binds”.

Regarding B25, the binding result is reported as “binds”. Then B26, with “binds”; and B27, with “binds”; and B28, with “binds”. In the case of B29, the binding result is “binds”. Then B30, with “binds”; and B31, with “binds”. With B32 the entry was “binds”; with B33, “binds”; with B34, “binds”. Then B35, with “binds”; and B36, with “binds”; and B37, with “binds”. Take B38: the binding result is on record as “binds”.
